{"source": "paper PMC4692527", "molecules": {"B1": {"name": "synthetic FvTox1-interacting fusion peptide 6 (PEP3-PEP4; His-tagged, expressed in E. coli) (designed binder)", "chain": "GGGSGGGGSGGGGSHEGAWHNYARSVGGGGSELGGGGSGGGGSGGGGSSNGRVADGGGGS"}, "B2": {"name": "synthetic FvTox1-interacting fusion peptide 6 in pB42AD (no flanking cysteines) (designed binder)", "chain": "B1 chain"}, "B3": {"name": "synthetic FvTox1-interacting fusion peptide 9 (PEP1-PEP2-PEP3-PEP4; His-tagged, expressed in E. coli) (designed binder)", "chain": "GGGGSGGGGSGGGGSSYLPETIYEYRLGGGGSELGGGGSGGGGSGGGGSVENKTRYHDREVGGGGSLEGGGGSGGGGSGGGGSHEGAWHNYARSVGGGGSGTGGGGSGGGGSGGGGSSNGRVADGGGGS"}, "B4": {"name": "synthetic FvTox1-interacting fusion peptide 9 in pB42AD (no flanking cysteines) (designed binder)", "chain": "B3 chain"}, "B5": {"name": "synthetic FvTox1-interacting fusion peptide 8 (PEP1-PEP2-PEP4; His-tagged, expressed in E. coli) (designed binder)", "chain": "GGGGSGGGGSGGGGSSYLPETIYEYRLGGGGSELGGGGSGGGGSGGGGSVENKTRYHDREVGGGGSLEGGGGSGGGGSGGGGSSNGRVADGGGGS"}, "B6": {"name": "synthetic FvTox1-interacting fusion peptide 8 in pB42AD (no flanking cysteines) (designed binder)", "chain": "B5 chain"}, "B7": {"name": "synthetic FvTox1-interacting fusion peptide 7 (PEP1-PEP2-PEP3; His-tagged, expressed in E. coli) (designed binder)", "chain": "GSGGGGSGGGGSGGGGSSYLPETIYEYRLGGGGSELGGGGSGGGGSGGGGSVENKTRYHDREVGGGGSLEGGGGSGGGGSGGGGSHEGAWHNYARSVGGGGS"}, "B8": {"name": "synthetic FvTox1-interacting fusion peptide 7 in pB42AD (no flanking cysteines) (designed binder)", "chain": "B7 chain"}, "B9": {"name": "synthetic FvTox1-interacting fusion peptide 5 (PEP1-PEP2; His-tagged, expressed in E. coli) (designed binder)", "chain": "GGGGSGGGGSGGGGSSYLPETIYEYRLGGGGSELGGGGSGGGGSGGGGSVENKTRYHDREVGGGGS"}, "B10": {"name": "synthetic FvTox1-interacting fusion peptide 5 in pB42AD (no flanking cysteines) (designed binder)", "chain": "B9 chain"}}, "key": {"[1]": {"biological_target": "FvTox1 in the pLexA vector (LexA fusion) (Fusarium virguliforme)", "assay": "two-hybrid; LexA two-hybrid system, yeast EGY48 [pSH18-34]; FvTox1 in pLexA, peptides in pB42AD; reporters LacZ and LEU2; quantitative β-galactosidase activity (Miller units), three biological replications"}, "[2]": {"biological_target": "GST-tagged FvTox1 (Fusarium virguliforme)", "assay": "pull-down; purified His-tagged peptides/fusion proteins mixed with GST-tagged FvTox1, pulled down with glutathione resin; western blot with anti-His antibody; relative percent pulled down, two independent experiments"}}}
{"molecule": "soybean GmGD1, a glycine cleavage protein (natural protein)", "values": [{"measurement": "β-galactosidase activity", "setting": "[1]", "result": 5.79, "unit": "Miller units"}]}
{"molecule": "soybean GmTRX3, a thioredoxin protein (natural protein)", "values": [{"measurement": "β-galactosidase activity", "setting": "[1]", "result": 9.64, "unit": "Miller units"}]}
{"molecule": "B1", "values": [{"measurement": "percent peptide pulled down by FvTox1 (relative binding strength)", "setting": "[2]", "result": 8.8, "unit": "percent"}]}
{"molecule": "B2", "values": [{"measurement": "β-galactosidase activity", "setting": "[1]", "result": 5.32, "unit": "Miller units"}]}
{"molecule": "B3", "values": [{"measurement": "percent peptide pulled down by FvTox1 (relative binding strength)", "setting": "[2]", "result": 47, "unit": "percent"}]}
{"molecule": "B4", "values": [{"measurement": "β-galactosidase activity", "setting": "[1]", "result": 5.64, "unit": "Miller units"}]}
{"molecule": "GGGGSGGGGSGGGGSHEGAWHNYARSVGGGGS", "note": "[synthetic FvTox1-interacting peptide 3 (His-tagged, expressed in E. coli)]", "values": [{"measurement": "percent peptide pulled down by FvTox1 (relative binding strength)", "setting": "[2]", "result": 2.7, "unit": "percent"}]}
{"molecule": "GGGGSGGGGSGGGGSHEGAWHNYARSVGGGGS", "note": "[synthetic FvTox1-interacting peptide 3 in pB42AD (no flanking cysteines)]", "values": [{"measurement": "β-galactosidase activity", "setting": "[1]", "result": 5.87, "unit": "Miller units"}]}
{"molecule": "GGGGSGGGGSGGGGSSYLPETIYEYRLGGGGS", "note": "[synthetic FvTox1-interacting peptide 1 in pB42AD (no flanking cysteines)]", "values": [{"measurement": "β-galactosidase activity", "setting": "[1]", "result": 6.59, "unit": "Miller units"}]}
{"molecule": "GGGGSGGGGSGGGGSSYLPETIYEYRLGGGGS", "note": "[synthetic FvTox1-interacting peptide 1 (His-tagged, expressed in E. coli)]", "values": [{"measurement": "percent peptide pulled down by FvTox1 (relative binding strength)", "setting": "[2]", "result": 3.9, "unit": "percent"}]}
{"molecule": "GGGGSGGGGSGGGGSSNGRVADGGGGS", "note": "[synthetic FvTox1-interacting peptide 4 in pB42AD (no flanking cysteines)]", "values": [{"measurement": "β-galactosidase activity", "setting": "[1]", "result": 6.45, "unit": "Miller units"}]}
{"molecule": "GGGGSGGGGSGGGGSVENKTRYHDREVGGGGS", "note": "[synthetic FvTox1-interacting peptide 2 (His-tagged, expressed in E. coli)]", "values": [{"measurement": "percent peptide pulled down by FvTox1 (relative binding strength)", "setting": "[2]", "result": 5.5, "unit": "percent"}]}
{"molecule": "GGGGSGGGGSGGGGSVENKTRYHDREVGGGGS", "note": "[synthetic FvTox1-interacting peptide 2 in pB42AD (no flanking cysteines)]", "values": [{"measurement": "β-galactosidase activity", "setting": "[1]", "result": 5.88, "unit": "Miller units"}]}
{"molecule": "B5", "values": [{"measurement": "percent peptide pulled down by FvTox1 (relative binding strength)", "setting": "[2]", "result": 26, "unit": "percent"}]}
{"molecule": "B6", "values": [{"measurement": "β-galactosidase activity", "setting": "[1]", "result": 3.35, "unit": "Miller units"}]}
{"molecule": "GGGGSGGGGSGGGGSSNGRVADGGGGS", "note": "[synthetic FvTox1-interacting peptide 4 (His-tagged, expressed in E. coli)]", "values": [{"measurement": "percent peptide pulled down by FvTox1 (relative binding strength)", "setting": "[2]", "result": 2.3, "unit": "percent"}]}
{"molecule": "B7", "values": [{"measurement": "percent peptide pulled down by FvTox1 (relative binding strength)", "setting": "[2]", "result": 38.5, "unit": "percent"}]}
{"molecule": "B8", "values": [{"measurement": "β-galactosidase activity", "setting": "[1]", "result": 6.12, "unit": "Miller units"}]}
{"molecule": "B9", "values": [{"measurement": "percent peptide pulled down by FvTox1 (relative binding strength)", "setting": "[2]", "result": 31.8, "unit": "percent"}]}
{"molecule": "B10", "values": [{"measurement": "β-galactosidase activity", "setting": "[1]", "result": 3.11, "unit": "Miller units"}]}
